Data: US6994974B1, “Intracellular amyloid-beta binding (ERAB) polypeptide-related assays” (The trustees of Columbia University in the city of New York, priority 1997, dated 2006)

Experiments:
TrcHis-ERAB polypeptide = biological target: T1, TrcHis-ERAB polypeptide (Homo sapiens, UniProt Q99714); assay: Binding of ^125I-amyloid-beta peptide (1–40) to TrcHis-ERAB polypeptide adsorbed to microtiter wells; details: unlabelled competitor at 10 μM; tracer 100 nM; FIG. 2E
T1 construct: made in house; host or cells: E. coli
T1 sequence (Q99714 1-261): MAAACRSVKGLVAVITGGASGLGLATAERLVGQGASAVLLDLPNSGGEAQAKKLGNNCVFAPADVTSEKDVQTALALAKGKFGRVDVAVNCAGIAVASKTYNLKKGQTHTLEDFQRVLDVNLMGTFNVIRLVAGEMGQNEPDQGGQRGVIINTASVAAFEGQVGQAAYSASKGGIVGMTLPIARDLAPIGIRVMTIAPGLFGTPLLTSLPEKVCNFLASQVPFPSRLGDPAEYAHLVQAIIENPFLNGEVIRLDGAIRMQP
Protocol: FIGS. 2A, 2B, 2C, 2D, 2E, 2F, and 2G. […] FIG. 2A. SDS-PAGE (12%; reduced) followed by immunoblotting of TrcHis-ERAB polypeptide (FIG. 2A, lane 1; 2 μg) and TrcHis-chloramphenicol acetyltransferase (CAT; FIG. 2A, lane 2; 2 μg) fusion proteins using anti-ERAB polypeptide IgG (3 μg/ml). […] FIGS. 2B and 2C. […] Binding was analyzed by nonlinear least squares analysis using the method of Klotz and Hunston (60). FIG. 2E. […] FIGS. 2F and 2G. […] 0 indicates wells coated with albumin alone. […] Control TrcHis-CAT construct (Invitrogen) was also used to transform E. coli and the fusion protein was purified as above. Antibody to ERAB polypeptide was prepared by immunizing rabbits with ERAB polypeptide-derived peptides, corresponding to residues 100–116 and 133–147, conjugated to keyhole limpet hemocyanin. […] (for ERAB polypeptide) or overnight at 4° C. […] Unbound radioactivity was removed by washing wells five times with ice cold phosphate-buffered saline containing Tween 20 (0.05%), and bound radioactivity was eluted by incubation with Nonidet P-40 (1%).

[1] = test system: ERAB polypeptide in neuroblastoma cells; assay: Cellular distribution of ERAB polypeptide in neuroblastoma cells by immunofluorescence; assay type: cell-based, human; details: peptide added to neuroblastoma cells; amyloid-beta peptide (1–42) 1 μM; FIGS. 4F, 4G
Protocol: FIGS. 4A, 4B, 4C, 4D, 4E, 4F, 4G, 4H, and 4I. Expression of ERAB polypeptide in cultured cells: localization to the endoplasmic reticulum and change in distribution following addition of amyloid-beta peptide. FIG. 4A. Immunoblotting of ERAB polypeptide in human neuroblastoma SK-N-SH (FIG. 4A, lane 1) and HeLa (FIG. 4A, lane 2) cells. Cell extracts (50 μg protein/lane) were subjected to immunoblotting using anti-ERAB polypeptide IgG (3 μg/ml). FIGS. 4B, 4C, and 4D. […] Scale bar=25 μm. FIG. 4E. Subcellular fractionation of ERAB nucleic acid-transfected human neuroblastoma cells. Transfected cells (5×10^8) were pelletted and fractionated in a series of sucrose steps (38%, 30% and 20%) by ultracentrifugation (100,000 for 3 hrs). […] Neuroblastoma cells were incubated in buffer alone or in the presence of amyloid-beta peptide (1–42; 1 μM), and the distribution of ERAB polypeptide was determined by immunofluorescence with anti-ERAB polypeptide IgG. […]
These observations also posed an apparent paradox, for, how could amyloid-beta peptide, most of which is extracellular, interact with a polypeptide associated with endoplasmic reticulum? […] Second, it was determined that ERAB polypeptide became associated with amyloid-beta peptide, and that amyloid-beta peptide-induced effects on ERAB polypeptide were not likely mediated by an indirect mechanism. […]

Competition for ^125I-amyloid-beta peptide (1–40) binding to TrcHis-ERAB polypeptide (TrcHis-ERAB polypeptide) | Substance | Change in cellular distribution of ERAB polypeptide [1]
had no effect | Arg-Gly-Asp-Ser (RGDS) | –
blocked binding | amyloid-beta peptide (1–20): synthetic amyloid-beta peptide (1–20) | –
– | amyloid-beta peptide (1–42): exogenous amyloid-beta peptide (1–42) | marked change in the cellular localization
had no effect | amyloid-beta peptide (25–35): synthetic amyloid-beta peptide (25–35) (GSNKGAIIGLM) | –
